The target of data set [1] is extracellular domain of ZIP14 from Pteropus alecto (Pteropus alecto). The experiment in a line: SEC; purified protein on a size exclusion column; elution volume compared with standard proteins eluted on the same column.
Data set [2] addresses pZIP14-ECD C147S mutant (Pteropus alecto). The data set is described as above.
Data set [3] deals with the molecule itself. The data set is described as above.
Data set [4] deals with the molecule itself. The experiment in a line: cross-linking; disulfide through an engineered cysteine; full-length hZIP4-HA transiently expressed in HEK293T cells; 4-20% gradient SDS-PAGE with or without 5% β-mercaptoethanol, western blot with anti-HA.

On to “extracellular domain of ZIP14 from Pteropus alecto (from UniProt A5D7L5 61-174) (domain or fragment)”, for which the stoichiometry N in data set [1] was 2.

As to “pZIP14-ECD C147S mutant (from UniProt A5D7L5 61-174) (domain or fragment)”, the stoichiometry N in data set [2] was found to be 2.

B1: ZIP4 extracellular domain from Pteropus alecto (black fruit bat) (domain or fragment, UniProt L5KLU7 36-322, looked up)
chain: SGQGALDRVALGGLLNTLAARVHCTSGPCGKCLSVDDLLALGRPEEPGHLARLSAAAALYLSDPEGTCEDIRAGRWASRADHLLALLEGPKALAPGLSRLLQRIQAQTTGQPSAGEACVDPPQLLREAGVAGAPGSPGPVLATLLEHVGRGSCFHTLPTPQYFVDFVFQQSHGNTPNISVAELAALMQRLGVGGVTETHSDHHHQEKRVNRQGPTPLTAPNSSSDTWDTVCLSARDVMAVYGLSEQTGVTPEAWAQLSPALLQQQLSGACSPQPSHPAQNQLSQAEK
notes: Zinc transporter ZIP4 (SLC39A4) of Pteropus alecto, GenBank ELK11751, residues 36-322 (extracellular domain: HRD 36-191 and PCD 192-322); A selenomethionine-substituted form was also crystallised for phasing; Four intramolecular disulfide bonds (C59-C64, C67-C103, C153-C188, C266-C305); also called pZIP4-ECD; ZIP4-ECD; source: E. coli Origami B(DE3) pLysS, purified (Ni-NTA, Mono-Q, SEC); not …
Turning to B1, the “stoichiometry N” value in data set [3] was found to be 2.

B2: full-length human ZIP4 S297C mutant with C-terminal HA tag (natural protein, UniProt Q6P5W5-1 23-647, looked up)
chain: SPPAGLLSLLTSGQGALDQEALGGLLNTLADRVHCANGPCGKCLSVEDALGLGEPEGSGLPPGPVLEARYVARLSAAAVLYLSNPEGTCEDARAGLWASHADHLLALLESPKALTPGLSWLLQRMQARAAGQTPKMACVDIPQLLEEAVGAGAPGSAGGVLAALLDHVRSGSCFHALPSPQYFVDFVFQQHSSEVPMTLAELSALMQRLGVGREAHSDHSHRHRGASSRDPVPLISSSNSSSVWDTVCLSARDVMAAYGLSEQAGVTPEAWAQLCPALLQQQLSGACTSQSRPPVQDQLSQSERYLYGSLATLLICLCAVFGLLLLTCTGCRGVTHYILQTFLSLAVGAVTGDAVLHLTPKVLGLHTHSEEGLSPQPTWRLLAMLAGLYAFFLFENLFNLLLPRDPEDLEDGPCGHSSHSHGGHSHGVSLQLAPSELRQPKPPHEGSRADLVAEESPELLNPEPRRLSPELRLLPYMITLGDAVHNFADGLAVGAAFASSWKTGLATSLAVFCHELPHELGDFAALLHAGLSVRQALLLNLASALTAFAGLYVALAVGVSEESEAWILAVATGLFLYVALCDMLPAMLKVRDPRPWLLFLLHNVGLLGGWTVLLLLSLYEDDITF
notes: Human zinc transporter ZIP4 (SLC39A4), GenBank BC062625, with S297C (S297 is equivalent to S293 in pZIP4); Intermolecular disulfide C297-C297* in the dimer; also called S297C mutant ZIP4; source: HEK293T, transiently transfected, in lysate; not shown: HA, C-terminal, kept
Turning to B2, the “stoichiometry N” value in data set [4] was found to be 2.
